Test results: the nanobody polyreactivity screen of Harvey et al. (2022)

Assay: yeast display, Sf9 membrane polyspecificity reagent, FACS + sequencing; frameworks hold sequencing errors
Summary of the method: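 In a synthetic yeast display library (Saccharomyces cerevisiae BJ5465), nanobody expression was induced with galactose for 36–48 hours. FACS gates were set low and high (top ~1%) using anti-HA fluorescence for expression and streptavidin fluorescence for binding of the Sf9 membrane reagent. Each polyreactivity label is drawn from the gate of origin.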

Sequence	polyreactivity (PSR sort gate)
QVQLVQSGGGLVQAGGSLRLSYAASGRIFSPNAMGWYRQAPGKERELVAAISYRGANTYYADSVKGRFTISRDNAKNTVDLQMHSLKPEDTAVYYCATRSTHYWGQGTQVTVSS	high polyreactivity
QVQLVQSGGGLVQAGGSLRVSSAASGNIFAYYAKGWYSQAPGKERELVAAITDSGGNTFYADSVKGRFTISRDQAKNTVYLQMNSLKPEDTAVYYCAADTFYSYYDMDYWGQGTQVTVSS	low polyreactivity
QVQLVQSGGGLVQAGVSLRLSCAASGLIIGVYAMGWYRQAPGKERELVAAITDGGSTYYADSVKGRFTISRDNAKNTVYLQMHSLKPEDTAVYYCNAEFRSSDYDYWGQGTQVTVSS	low polyreactivity
QVQLVQSRRGLVQAGCSLRLSCAASGRTFVIYAMGWYRQAPGKERELVAAISKGGGSTYYADSVKGRFTISRDNAKNTVYLQMNSLKPEDTAVYYCAVEASRAGAWYEYWGQGTQVTVSS	high polyreactivity
QVQLVQSVGGLVQAGGSLRLSCAASGSIFIWNAMGWYRQAPGKVRELVAAISFTGTSTYYADSVTGRFTISRDNAKNTVYLEMNSLKPEDNAVYYCNNDYRGSQYDYWGQGTQVTVSS	low polyreactivity
QVQLVQTGGGVVQAGGSLRLSCAASGRIFNSYPMGWYRQAPGKERELVASINRYGGSTYYADSVKGRFTISRDNAKNTVYLQMYSLNPEDTSVYYCAARGYTSFNTGYGYWGQGTQVSVSS	high polyreactivity
QVQLVSSGGGLVLAGGSLRLSCAASGRTIQDNAMGWYTQAPGKERELVAAISWRGGSTNYADSVKGRFTISRDNAKNTVYLQMNSLKPEDTAVYYCNRDPRKYGKLDYWGQGTQVTVSS	low polyreactivity
QVQLVVSGGGLVQAGGSLRLSCAASGFTFSSNAMGWYRQAPGKECELVAAISTSGASTYYADSVKGRFTISRDNAKNTVYLQMNSLKPADSAVYYCNVPQWHRWYGYPGEDYDYWGQGTQVTVSS	high polyreactivity
QVQLVVSGGGLVQAGGSLRLSCAASGIIFSPYALGWYIQAPGKERELVAAISYSGGSTYYADSVKGRFTISRDNAKNTVYLQMNSLKPEDTAVYYCAVVYSYYLAVMGYWDYDYWGQGTQVTVSS	low polyreactivity
QVQLVVSGGGLVQAGGSLRLSCAASGITFGRNTMGWYRQAPGKERELVAAIDSGGNTYADSVKGRFTISRDNAKNTVYLQMNSLKPEDTAVYYCAVDGGEFSSYGYWGQGTQVTVSS	low polyreactivity
QVQLVVSGGGLVQAGGSLRLSCAASGRIFWFNAMGWYRQAPGKEREFVATITYRGGSTYYADSVKGRFTISRDNAKNTVYLQMNSLLPEDTAVYYCAASVSYRRYHRFGYWGQGTQVTVSS	high polyreactivity
QVQLVVSGGGLVQAGGSLRLSCAASGRIFYTYAMGWYIQAPGKERELVATITDGGSTYYADSVKVRFTISRDNAMNNVYLQMNILKPEDTAVYYCAADAYQWYDWGQGTHVTVSS	low polyreactivity
QVQLVVSGGGLVQAGGSLRLSCAASGSIFRFYTMGWYRQAPGKERELVAAISASGGNTYYADSVKGRFTISRDNAKNTVYLQMNSLKPEDTAVYYCARVKFTKYDYWGQGTQVTVSS	high polyreactivity
QVQLVVSGGGLVQAGGSLRLSCAASGSIFTRYAMGWYRQAPGKERELVAAISSGGSTYYADSVKGRFTISRDNAKNTVYLQMNSLKPEDTAVYYCAKDSGSYRVGIYEPFPYGYWGQGTQVTVSS	low polyreactivity
QVQLVYSGGGLVKAGGTLRLSCAASGSTFTPNAMGWYRQAPGKERELVAAINWSDSSTYYADSVKGRFTISRDNAKNTVYLQMNSLIPEDTAVYYCAAAAQYGQLQVPVYYWGEGTQVTVSS	low polyreactivity
QVQLVYSGGGLVQAGGSLRLSCAASGRTSWIKAMGWYRTAPGKERQLVAAIRYSGRTYYADSVKGRFTISRDNAKNTVYLQMNSLKPEDYGVYYCAAVVGGYETGRYYYWGQGTQVTVSS	high polyreactivity

Sequence	polyreactivity (PSR sort gate)
QVQMQESSGGLVHAGGSLRKSCAASGTIYHFHIMGWYRQAPGKEREFVAAIRYGTSTYYADSVKGLFTISRDNEKNTVYVKMNSQKPEDTAVYYCAVYDYLEVYCWYWGQGTQVTVSS	low polyreactivity
QVQNVDSGGVLVQAGGSLRLSCEASGRIRYYAMGWYRQAPGKERELVAAISSRGGSTYYADSVKGRFTISRDNAKNTVYLLLNSLKPEDTAVYYCAKGGYWGHGTQVTVSS	high polyreactivity
QVQPVESGGGLVQAGGSLRLSCAASGSTLGHNAMGWYRQAPGKERELVAAITSSGGRTYYADSVKGRFTISRDNAKNTVYLQMNSLKPEDTAVYYCAADDTDYPEYDYWGQGTQVTVSS	high polyreactivity
QVQPVESVGGLVQAGGSLRLSGAASGSIFAVYAMRWYRQPPGNERELVARITRGGGSTYYADSVKGRVTISRDNAKNTVYLQMNSLKPEDTAVYYCAAARRSQYRTWMNYWGQGTQVTVSS	high polyreactivity
QVQQPESGGGLVQAGGSLRLSCAASGTIFQLTVMGRSRQAPGKERELVASIDYGGNPNYADSVKGRFTISRDNAKNTVYLQMNCLKPEDTAVYYCAASSDSWTTHPYWGQGTQVTVSS	low polyreactivity
QVQQQESGGGLVKAGGSLRLSCAASGNNSPRDAMGWYRQAPGEERDLVASNAYSAITYYADGVKGRYTISRDNAKNTVYLQMNSLKPEDTEVYYCAVYQFTYPVFPAYWGQGTQVTVSS	low polyreactivity
QVQQQESGGGLVQAGGSLRLSCAASGTIFQLTVMGRYRQAPGNERELVASIDYGGNTNYADSVKGRFTISRDNAKNTVYLQMNILKPEDTAVYYCPASSDSWTTHPYWGQGTQVTLSS	low polyreactivity
QVQQQESGGGLVQAGGSLRLSCAASGTIFQLTVMGRYRQAPGQERELVASIDYGGNTNYADSVNGRFTISRDNAKNTVYLQMNSLKPEDTAVYYCAASSDSWTTHPYWGQGTQVTVSS	low polyreactivity
QVQQQESGGGLVQAGGSQRLSCAASGTSLNSLCMGWYRQAPGKRREFVASITWGTTTNYAESVKGRFTISRDNANNTVYPQMNSLKPEDTAVYYCAAPPFGDSSYHYWGQGTQVTVSS	low polyreactivity
QVQQQESGGGLVQEGGSLRLSCAASGNISPPADMGWYRQAPGKERELVASIGTGGTTNYADSVKGRFTISRDNAKNTVYLQMNSLKPDDTAVFYCAAVRYEYNPYDYWGQGTQVTVSS	low polyreactivity
QVQREESGGGLVQAGGSLRLSCAASGFIFDNNAMGWYRQAPGKERELVAAISSADSTNYADSEKGRFSISRDNAKNTVYLQMNSLKPEDTAVYSCNRSQGGEKGWFHYDSWGQGTQVTVSS	low polyreactivity
QVQREESGGGLVQAGGSLRLSCAASGITFVLNVMGWYRQAPGKETELLAAISASGGRTYYADSVKGRFTISRDNAKNTVYLQMNSLKPEDTAVYYCNAVLPRYTFRSGVFEYDWGQGTQVTVSS	high polyreactivity
QVQREESGGGLVQAGGSLRLSCAASGRIMNINAMGWYRPATGKERERVAAITWRGGRTFYADSVKGRFTISRDNAKNTVYLQMNSLKAEDTAVYYCAASSNSWYPTGYYWGQGTQVTVSS	high polyreactivity
QVQREESGGGLVQAGGSLRLSCAASGSIFVGNAMGWYRQAPGKESELVAAITASGTSTYYADSVKGRFTISRDNAKNTVYLQMNSLKPEDTAVYYCNAVQLVYDQYRYDYWGQGTQVTVSS	high polyreactivity
QVQRVDSGGGLVQAGGRLRLSCAASGLNFYLYAMGLYRQAPRKEREFVAAITTSGGSTHYADSVKGRFTISRDNAKNTVYLQMNSLKPEDTAVYYCAADDYFHGPGMEFDFLGQGTQVTVSS	low polyreactivity
QVQRVDSGGGLVQAGGSLRLSCAASGITFTLYDMGWYRQAPGKERELVASITSDGSTDYADSVKGRFTISRDNAKNTVYLQMISLKPEDTAVYYCNARVTYSWYRFGRSGDDSWGQGTQVTVSS	low polyreactivity
